For this data set, the target named is T1, TLR7-Fc (toll-like receptor 7 ectodomain fused to human Fc) (UniProt Q9NYK1 27-839).
T1 sequence: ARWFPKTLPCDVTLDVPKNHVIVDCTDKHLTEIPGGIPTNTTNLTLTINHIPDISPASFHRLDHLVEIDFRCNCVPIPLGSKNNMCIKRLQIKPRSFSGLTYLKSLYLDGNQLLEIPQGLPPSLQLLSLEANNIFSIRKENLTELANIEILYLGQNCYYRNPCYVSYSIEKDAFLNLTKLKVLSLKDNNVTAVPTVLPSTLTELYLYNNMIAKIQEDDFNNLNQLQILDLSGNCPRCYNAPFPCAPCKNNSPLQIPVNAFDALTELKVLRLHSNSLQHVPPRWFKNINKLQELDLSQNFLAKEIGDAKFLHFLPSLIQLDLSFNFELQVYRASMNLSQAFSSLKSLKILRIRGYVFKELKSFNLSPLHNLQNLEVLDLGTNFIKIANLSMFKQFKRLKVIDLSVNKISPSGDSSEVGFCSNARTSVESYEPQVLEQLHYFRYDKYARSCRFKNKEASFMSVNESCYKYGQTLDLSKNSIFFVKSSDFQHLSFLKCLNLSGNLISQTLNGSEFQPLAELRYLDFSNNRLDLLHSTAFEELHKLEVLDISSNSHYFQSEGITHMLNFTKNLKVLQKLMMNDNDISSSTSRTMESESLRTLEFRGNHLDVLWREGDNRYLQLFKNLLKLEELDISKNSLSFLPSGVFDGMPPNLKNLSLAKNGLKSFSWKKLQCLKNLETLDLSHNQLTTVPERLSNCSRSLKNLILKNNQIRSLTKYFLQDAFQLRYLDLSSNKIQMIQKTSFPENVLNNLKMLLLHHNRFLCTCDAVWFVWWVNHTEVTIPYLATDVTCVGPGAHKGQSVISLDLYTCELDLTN
As to the kind of experiment: competition.

Regarding GUCUUCAAAACUAGGUCGUUUUAGA (ssRNA, 5' phosphate; 3' biotin) [competitor ssRNA], the binding result is reported as “binds”.

The record behind these values is publication doi:10.1101/2024.07.23.604836.
